What all share (conditions): both partners purified
Assay [1] concerns the target T1, CYP11A1 (UniProt P00189 40-520).
T1 construct: CYP11A1 (cholesterol side-chain cleavage cytochrome P450); Single band at 55 kDa on SDS gel; Heme protein; also called recombinant CYP11A1; His-tagged CYP11A1; source: E. coli C43(DE3), co-transformed with groEL/groES chaperones, purified (IMAC Ni-NTA, SP-sepharose)
T1 sequence (looked up): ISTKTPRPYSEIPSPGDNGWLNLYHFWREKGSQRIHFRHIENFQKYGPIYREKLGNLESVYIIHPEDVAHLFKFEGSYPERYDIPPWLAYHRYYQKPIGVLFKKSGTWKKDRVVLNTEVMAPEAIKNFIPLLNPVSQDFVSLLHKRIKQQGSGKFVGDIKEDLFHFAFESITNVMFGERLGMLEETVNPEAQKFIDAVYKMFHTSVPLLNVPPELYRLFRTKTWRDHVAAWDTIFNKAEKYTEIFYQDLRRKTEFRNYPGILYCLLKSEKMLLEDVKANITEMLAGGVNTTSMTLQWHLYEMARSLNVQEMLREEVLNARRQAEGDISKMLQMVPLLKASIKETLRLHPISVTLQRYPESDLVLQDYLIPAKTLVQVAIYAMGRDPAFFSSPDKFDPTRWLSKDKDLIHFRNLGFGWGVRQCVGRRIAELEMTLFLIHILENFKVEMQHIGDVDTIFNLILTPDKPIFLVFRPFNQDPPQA
Kind of assay: SPR; Biacore3000; CYP11A1 injected at 5-7.5 nM in HBS-EP buffer, at least three times each; bound CYP11A1 removed with 2 mM NaOH; in absence of cholesterol; Biaeval 4.1. In general terms: In SPR one partner is held on a chip, and binding of the other changes the refractive index at the surface.

Assay [2] has as its target T1, CYP11A1. Put plainly: SPR; Biacore3000; CYP11A1 injected at 5-7.5 nM in HBS-EP buffer; bound CYP11A1 removed with 2 mM NaOH; in the presence of cholesterol and DHEAS (CYP11A1:cholesterol:DHEAS 1:10:50 by the methods, 1:15:75 by the legend of Figure 7); Biaeval 4.1.
Assay [3] addresses T1, CYP11A1. Put plainly: SPR; Biacore3000; CYP11A1 injected at 5-7.5 nM in HBS-EP buffer; bound CYP11A1 removed with 2 mM NaOH; in the presence of cholesterol (CYP11A1:cholesterol 1:10 by the methods, 1:15 by the legend of Figure 7); Biaeval 4.1. The arrangement: scale not given here.
The target of assay [4] is T1, CYP11A1. Put plainly: SPR; Biacore3000; CYP11A1 injected at 5-7.5 nM in HBS-EP buffer, at least three times each; bound CYP11A1 removed with 2 mM NaOH; in absence of cholesterol; Biaeval 4.1. The arrangement: scale not given here.
The target of assay [5] is T1, CYP11A1. Kind of assay: SPR; Biacore3000; CYP11A1 injected at 5-7.5 nM in HBS-EP buffer; bound CYP11A1 removed with 2 mM NaOH; in the presence of cholesterol (CYP11A1:cholesterol 1:10 by the methods, 1:15 by the legend of Figure 7); Biaeval 4.1.

The source of these data is paper PMC3931814, “Dehydroepiandrosterone Sulfate (DHEAS) Stimulates the First Step in the Biosynthesis of Steroid Hormones” (PLoS ONE, 2014).

B1: bovine adrenodoxin (natural protein, UniProt P00257 59-186, looked up)
chain: SSSEDKITVHFINRDGETLTTKGKIGDSLLDVVVQNNLDIDGFGACEGTLACSTCHLIFEQHIFEKLEAITDEENDMLDLAYGLTDRSRLGCQICLTKAMDNMTVRVPDAVSDARESIDMGMNSSKIE
notes: adrenodoxin (Adx), bovine, the ferredoxin that transfers electrons to CYP11A1; [2Fe-2S] protein; also called Adx
With B1, the Kd (in general, the free concentration of one partner at which half of the binding sites on the other are occupied at equilibrium, for simple one-to-one binding) came to 3.8 ± 0.55 nM in assay [1], 2.4 ± 0.05 nM in assay [2] and 3 ± 0.35 nM in assay [5]. The off-rate constant (koff) (usually the first-order rate constant of dissociation) in assay [3] worked out at 2.8 ± 0.09 s⁻¹; in assay [4], 2.4 ± 0.99 s⁻¹.
